We go through 21 sequences from the DeepSol protein solubility set.

The data set is described as follows: soluble on expression in E. coli; label from the status in PepcDB or PDB records.
On to “MYRLQIEKIRGFRDFYPEDMDVEKFIFKTAEEAAEAFGFRRIDFPSLEYLDLYRIKSGEELLQQTYSFVDKGGREVTLIPEATPSTVRMVTSRKDLQRPLRWYSFPKVWRYEEPQAGRYREHYQFNADIFGSDSPEADAEVIALASSILDRLGLQDIYEIRINSRKIMEEIIGGMTSSDPFSVFSIIDRYHKISREEFVDQLRSAGIGEDGVSMIADLCSGTRGIDEMARITGKSSEEIARMAAVEDLLASYGVKNVRYDFSIVRGLSYYTGIVFEAYDRSGQFRAILGGGRYDNLASLMSGESVPAVGFGMGDAVISLLLKRENVQIPREKKSVYICRVGKINSSIMNEYSRKLRERGMNVTVEIMERGLSAQLKYASAIGADFAVIFGERDLERGVVTIRNMYTGSQENVGLDSVVEHLISQATLEHHHHHH”, for which the “soluble on expression in E. coli” value is on record as “soluble”.

With “MGSDKIHHHHHHMTAASSVSAPGAPTIGVDFGTTNTVVSLTLGDDQARLVRYSINNRDLFAFRSALSFHSVQGVGEAANERVVEAGPWAIEAYLEDPLETRFIQSFKTFAASAAFTETRILNKRYQFEDLLAAFLLRLRDHAGAQLSELPPRIIVGRPVTFAGSSPDEALALTRYEAAFERLGFTDIRYAYEPVGAAFFFARQLKQDATVLVADFGGGTSDFSLVRFERAADGTLRSTPLSRSGVGVAGDAFDYRIIDQLVSPELGKGSDYRSFSNSLPIPQRYYAAFARWDQLALLRASKDMRDIRALERTAVEPDKIAALIEVLDGNHGYALYRSVSALKEALSSQDQATFRFEAGSVRIEKPVARVEFEAWIAPELAAIETAVGQALDQADLTEAGVDRVFLTGGSSFVPAVREIFLRRFGADKIETGGEFESIASGLALIGREADLDLWTMRAG”, the “soluble on expression in E. coli” value is on record as “not soluble”. With “MGSDKIHHHHHHMKNLYAKVIVGGSPISKSNFKLSNINGRAILPYNSGQYHDRYAIYEETIAYEARSQNPNTVISESIIAVLKVFYKSKKRHPDTNNITKSIFDGIEKSGIIVNDAQITRIIIEEYYDMINPRFELELFAESKFKMKYSILKKEEEDEPILYDPPSNKKRLITKTQKPKKSAQNGTITCSICGKKVTNDNIIWANKGTTALCKNCLKKSF”, the “soluble on expression in E. coli” value is given as “not soluble”. Turning to “MGSDKIHHHHHHMYYLSFSISSNCGLSAAAEHLQNKIVTLNVINSTDFNTVIAFTLARDIDAMRNDFAKDFKTVYIARGKKAAFINGTKISHGIVPAMISEQIIPLYPIFAENGSEWFNAIVLEKEHIDNFVALIEKKNNIETLDYERIRNGDSMFSIIKNANRGIFTLELTETERRIVNSSLRQGFFSWPRSYDLTSISREFGLTKPTILYHIRNAERKVMEALFGS”, the “soluble on expression in E. coli” value is “not soluble”. As for “MHEQLNSRVETCYLQAETFFKRTFKRPVVSFQLRGQKAGVAHLHENLLRFNPQLYQENAEDFLRQTVPHEVAHLVAHQLFGGGIQPHGEEWQLIMRGVYELPPNRCHTYAVQRRSVIRYIYRCPCPDSDFPFTSQRHSMVRKGRRYLCRRCREPLMFSGETRTELEHHHHHH”, the “soluble on expression in E. coli” value is “not soluble”.

For “MGSDKIHHHHHHMSRFVLITPDVSFDGRLRQAVAGGLQGGVQTFFTSLLPADPNDLFAHLDQERPEVLILGPDVPVEEALRLATVMNVRFPELSVILASEPDPDFILQAMRAGIRDILSPDSDAAQIRVLLERASQQFAGRYRVQAAAPMTDTNKGLVIGVFSPKGGVGKTTIATNIAVGLGKIAPMSVVIVDLDLQFGDVASALYLDPQHTVTDAVSPAASQDSLVLKAFLTVHPASIYAVCAPPTPVDADEITPEQVSRLLEQLSEQFQYVVVDTAPGLPEIGLAAMEQCTDVVWVSGMDIPSVRGLRSGLDVLRQLDILPETRHVVLNMADSKLGLTVQDLESTIGAPVDVSIPRSRAVALSTNRGIPVLQESAKDPATKGLNQLVNRFNPAWRATSQRKLHRRVVV”, the “soluble on expression in E. coli” value is “not soluble”. Consider “MSLKHTRPSIVNKRIDGRLTMSDNSKTRVVVGMSGGVDSSVTALLLKEQGYDVIGIFMKNWDDTDENGVCTATEDYKDVVAVADQIGIPYYSVNFEKEYWDRVFEYFLAEYRAGRTPNPDVMCNKEIKFKAFLDYAMTLGADYVATGHYARVARDEDGTVHMLRGVDNGKDQTYFLSQLSQEQLQKTMFPLGHLKKPEVRKLAEEAGLSTAKKKDSTGICFIGEKNFKNFLSNYLPAQPGRMMTVDGRDMGEHAGLMYYTIGQRGGLGIGGQHGGDNAPWFVVGKDLSKNILYVGQGFYHDSLMSTSLEASQVHFTREMPEEFTLECTAKFRYRQPDSKVTVHVKGDKAEVIFAEPQRAITPGQAVVFYDGEECLGGGLIDNAYRDGQVCQYIEGHHHHHH”, for which the “soluble on expression in E. coli” value is listed as “soluble”. Regarding “MSLDAAAATLPRKSGSVDRLVRLAEADMAGVNRLITDRMQSDVAIIPALAEHLIAAGGKRLRPLMTVAAARLAGADNDHFQKLAAAVEFIHTATLLHDDVVDGSQLRRGKVAAHLIWGGAQSVLVGDFLFARAFELMVETNSMKALEILARASRVIAEGEVLQLMRSHDLNLSQAVYLEIIQAKTAELFAAASEAGAVSAGVDVAESEALRDYGLNLGLAFQLADDALDYGGATETLGKNAGDDFREGKATLPLLLAIARSGPREAEFWERAIGRREQTEADFRRARELIIGSGALDATLDLAADYADKAKAALAMFPANDWREALEELADFAVSRRAEGHHHHHH”, the “soluble on expression in E. coli” value was “soluble”. Take “RRQHQHLLESLVHSTAKQQGDFTKTAELATELLCQNLAVSLVSIWIFSADQGTQSLVAQFGSMALQDTYRPSLLHTVPRYLNELKNYRHIDAGNTLIDPRLTELVDSYFIPRQILSSLDVGIRINGHLEGVLCIERAQVTHHWHDSEIHLACQMADQLALTLATKHAYDKEERLSLFRCAIEQSRQMSM”: the “soluble on expression in E. coli” value is given as “not soluble”. In the case of “DITERHAREQKLREERAVIQQALDALDEPLFVTDIDGRLKHCNHRALELTGNTEETAVGTPITALFPDEERETIADAVDDALRTGRTTITASLCLDSGQQQRYEFRAHSLTDLDNNTAGLVILGQDVS”, the “soluble on expression in E. coli” value is listed as “not soluble”.

For the sequence “MLREFSFYDVPPAHVPPVSEPLEIACYSLSRDRELLLDDSKLSYYYPPPLFSDLNTGFPNRFHPPKSDPDPISIVKDVLMTKGIQMNSSFLTWRGLITKIMCAPLDPRNHWETYLVMDPTSGIIMMEERTRSETSYANQDRMCYWGYKFEAISTLPEIWDACSRDQIEQRDNQDVVPDEQYCSIVKINIGKSKLILAGEVDCIWDKKPCSAKESDVHSDDGTIEEDASNAENPNLHYVELKTSKKYPLENYGMRKKLLKYWAQSFLLGIGRIIIGFRDDNGILIEMKELFTHQIPKMLRPYFKPNDWTPNRLLVVLEHALEWIKQTVKQHPPSTEFTLSYTGGSKLVLRQIILEHHHHHH”, the “soluble on expression in E. coli” value was “soluble”.

Regarding “MAHHHHHHMGTTASTDSADSPFSVRSVDSSGGGGWRQEDPERFRKYMHLKSQADQWRQRHGHTPGATRGELTKNLIEEVYEEDFESVDHVQSMRLPPMVLKEMKDAVANEAERRCAETEKVMARCLQDKMWTSWKCQKERDALYQCVADRKEDNELLMAYRWKYNLGTFHGELIGRNNMMRRIWKEHFPDRDLPHPWVKDA”, the “soluble on expression in E. coli” value was “not soluble”. For “LTLRAGREQNIPMNLSDSWAARRPVTARVSAAEAVLADLRDAITSGELSVGERLPSEASLAARHGVSRSVIREALRSCHALGLTETKSGLGTFVVSDSIARDLDFGNYAANELVEARPHVEIPAAGWAAQRHTAEDLAALRGLVDQMRDEDDPLVWVSLDAQFHAFIARTSRNRVFESVIVDIREALTRQSETLNLVAGRQQKSNDEHDRIVEGIASGSYDKAARAMAEHLDAVRVALESVVGEAGPDRRQ” the value was “not soluble”.

Take “MGHHHHHHSHLTVQFVPSQNAGTLEAKAKPLEKLLSKELGIPVKVSVSTNYNTIVEAMKSKKVDVGFLPPTAYTLAHDQKAADLLLQAQRFGVKEDGSASKELVDSYKSEILVKKDSKIKSLKDLKGKKIALQDVTSTAGYTFPLAMLKNEAGINATKDMKIVNVKGHDQAVISLLNGDVDAAAVFNDARNTVKKDQPNVFKDTRILKLTQAIPNDTISVRPDMDKDFQEKLKKAFIDIAKSKEGHKIISEVYSH”: the “soluble on expression in E. coli” value is listed as “not soluble”. As to “MGKEERAKWVNDEYAKAYEKMKSYGEQVKKADKPRVLYLKRSDLTLQGNDNFIKESMELAGADNIAAEAKSITMEEILKLDPEIILLSDFDKFLPQDLYENRIEGQDWSSVSAVVNKRVYKTPVGIYRWDAPGVETPLMMFWLGKMLQPEILEHHHHHH”, the “soluble on expression in E. coli” value was “not soluble”.

Turning to “MSTAKAPTLPASIFRAYDIRGVVGDTLTAETAYWIGRAIGSESLARGEPCVAVGRDGRLSGPELVKQLIQGLVDCGCQVSDVGMVPTPVLYYAANVLEGKSGVMLTGSHNPPDYNGFKIVVAGETLANEQIQALRERIEKNDLASGVGSVEQVDILPRYFKQIRDDIAMAKPMKVVVDCGNGVAGVIAPQLIEALGCSVIPLYCEVDGNFPNHHPDPGKPENLKDLIAKVKAENADLGLAFDGDGDRVGVVTNTGTIIYPDRLLMLFAKDVVSRNPGADIIFDVKCTRRLIALISGYGGRPVMWKTGHSLIKKKMKETGALLAGEMSGHVFFKERWFGFDDGIYSAARLLEILSQDQRDSEHVFSAFPSDISTPEINITVTEDSKFAIIEALQRDAQWGEGNITTLDGVRVDYPKGWGLVRASNTTPVLVLRFEADTEEELERIKTVFRNQLKAVDSSLPVPF”, the “soluble on expression in E. coli” value is on record as “soluble”. Regarding “MESITQIYRIGYGPSSSHTIGPRRAAEMFLDRNPRATSFRVTLYGSLAATGKGHLTDAAILAVLEAKAPTEIVWKPEIFQNFHPNGMLFESFDKEGKQLDDWLIYSIGGGVLANEHFNEQ”, the “soluble on expression in E. coli” value is reported as “not soluble”. As to “EEKLVKIAGFGGQGVLSMGLTLAEAACRDQKYVSWYPSYGPEQRGGTSNCSVIISGHEIGSPVVYSPGVLIALNKPSLENFAKDVKTGGTIIYDENIGDFEIPNGVTAIKVPASKIATEMGVSRAANTVMLGVLSALGYTGLSESVFVGAIEQTFSKKPKLIPINVEILNAGISWAKE”, the “soluble on expression in E. coli” value is reported as “not soluble”. Consider “VKLLTDLFKAGLRTPSTDQIQKISMELSFYGKIESKNVFYWFQNHKARERQKCRKISTVKFDHRQDTDLSKPRRDNVRRHQLPAKG”, for which the “soluble on expression in E. coli” value is “not soluble”. “MKDTTRNTYLAVDFGGGSGRVIAGSLLQGKLELEEIHRFTNRQVKLGNHVYWDFPALFEDMKTGLKLAAQKGYHVKGIGIDTWGVDFGLIDKKGNLLGNPVCYRDARTDGMPDKVFQILDAQKHYACTGIQVMPINTLFQLYSMQQNQDVLLEVAQRLLFMPDLFSYYLTGVANNEYCIASTSELLDARQRNWSMDTIRALGLPEHLFGEIILPGTVRGTLKEEIGRETGLGPVDIIAVGSHDTASAVAAVPATEGQVAFLSSGTWSLLGVEVDEPILTEEARLAQFTNEGGVGGHIRFLQNITGLWILQRLMSEWKLRGEEQSYDTILPQAADAEIDTIIPVDDAEFMNPENMETALLNYCRNHSLKVPGNKAEMVKCVLQSLAFKYREAVAQLNRCLPSPIHRLNIIGGGSQNKLLNQLTANALGIPVYAGPVEATAMGNILTQAMAKGEISSLREIREVVSHSVTPQVYYPEK”: the “soluble on expression in E. coli” value is listed as “not soluble”. With “SNALSASEERFQLAVSGASAGLWDWNPKTGAMYLSPHFKKIMGYEDHELPDEITGHRESIHPDDRARVLAALKAHLEHRDTYDVEYRVRTRSGDFRWIQSRGQALWNSAGEPYRMVGWIMDVTDRKRDEDALRVSREELRRL”, the “soluble on expression in E. coli” value is given as “soluble”.
